This data set deals with Recombinant human GST-TDP-43 (N-terminal GST tag, full length), non-phosphorylated.
Sequence of Recombinant human GST-TDP-43 (N-terminal GST tag, full length), non-phosphorylated (chain, as listed by the source): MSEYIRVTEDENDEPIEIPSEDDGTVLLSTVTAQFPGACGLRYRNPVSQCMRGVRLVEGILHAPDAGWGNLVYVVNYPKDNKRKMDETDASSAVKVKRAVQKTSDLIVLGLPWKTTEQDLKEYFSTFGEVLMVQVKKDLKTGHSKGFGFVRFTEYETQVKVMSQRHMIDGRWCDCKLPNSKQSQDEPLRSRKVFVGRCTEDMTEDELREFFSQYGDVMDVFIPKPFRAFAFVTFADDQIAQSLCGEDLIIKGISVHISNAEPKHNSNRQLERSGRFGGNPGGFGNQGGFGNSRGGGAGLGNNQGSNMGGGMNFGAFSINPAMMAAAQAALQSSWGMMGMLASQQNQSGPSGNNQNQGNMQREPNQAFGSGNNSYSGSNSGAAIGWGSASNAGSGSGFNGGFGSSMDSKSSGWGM

In the case of “recombinant casein kinase 1 (CK1; New England BioLabs, Inc)”, the “in vitro phosphorylation, read by anti-pTDP-43 Western blot” value was “CK1 effectively phosphorylated GST-TDP-43 at S409/S410 in vitro”.
